From patent US20260027179A1, “ANTI-SYNUCLEINOPATHY PEPTIDE AND METHODS TO TREAT NEURODEGENERATIVE DISEASES” (University of British Columbia, priority 2021, published 2026)

Tests used:
[1] = biological target: T1, endogenous α-synuclein (Rattus norvegicus, UniProt P37377); assay: Knockdown of endogenous α-synuclein in primary cortical neuron cultures, immunoblot; format: cell-based
T1 construct: endogenous in cells; host or cells: primary rat cortical neurons (14 DIV) and primary rat ventral midbrain neurons (3 DIV)
Procedure: Primary rat neuron cultures were prepared from embryos of pregnant Sprague-Dawley rats (E18). The experimental protocol was approved by the University of British Columbia Animal Care Committee. Briefly, the cortical tissue or ventral midbrain tissue was isolated into ice cold HBSS (Invitrogen, 14170-112) and then digested with 0.25% trypsin-EDTA at 37° C. for 30 min. After washing with warm DMEM (supplemented with 10% FBS) three times, neurons were suspended in neuron culture media and dissociated by trituration using varying sizes of pipettes. Neurons were then centrifuged, and the pellet was re-suspended in culture media, washed twice with culture media, and plated on the poly-D-lysine-coated plates. Neuron culture was maintained in the 37° C. incubator with […] and 5% CO2. The morning after culturing, 2/3 of the neuron culture media was replaced with fresh neuron culture media. Media was then replaced every 3-4 days. Primary rat cortical neuron culture was used 14 days in vitro (DIV) and primary rat ventral midbrain neuron culture was used 3 DIV.
Tat-βsyn-degron and Tat-βsyn peptides were first dissolved in sterile water as a 25 mM stock solution and then diluted directly in the neurobasal culture media to make the desired working concentration. 20 mM MPP+iodide stock solution was made freshly each time and diluted in the neurobasal culture media directly to make the desired working concentration. For 48 hrs treatment, neuron culture media containing MPP+ and peptides were replaced every 24 hrs.
(§1) Brain tissues or cultured cells were lysed on ice in the lysis buffer and then the solution was centrifuged at 14,000 rpm for 10 min at 4° C. Next, the supernatant was collected and protein concentrations were determined using a BCA protein assay kit (Thermo Scientific, 23227). Equal amount of protein samples was mixed with 4× sample buffer, boiled at 100° C. for 5 min, and separated on 10% sodium dodecyl sulphate-polyacrylamide gel electrophoresis (SDS-PAGE). Proteins were then transferred to Immobilon-PTM polyvinylidene fluoride (PVDF) membranes (Bio-Rad, 162-0177). The membranes were blocked with 5% non-fat milk in Tris-buffered saline containing 0.1% Tween-20 (TBST) for 1 hr at room temperature, and then incubated overnight at 4° C. with primary antibody. After washing 3×5 min in TBST, membranes were incubated with horseradish peroxidase-conjugated secondary antibody for 1 hr at room temperature. After another three washes with TBST, protein was visualized in the Bio-Rad Imager using ECL western blotting substrate (Pierce, 32016). The band density of each protein was quantified by the Bio-Rad Quantity One software and the relative optical density was analyzed relative to the loading control β-actin on the same membrane.

[2] = system: dopaminergic neurons; assay: MPTP mouse model, dopaminergic neuronal damage (TH immunoblotting, TH immunohistochemistry); format: in vivo; conditions: peptide 6 μmol/kg i.p. twice a day for 12 days
Procedure: C57BL/6 mice were i.p. injected with 30 mg/kg parkinsonian toxin MPTP (or saline as control), once per day for 5 consecutive days, to induce dopaminergic neuron damage. The effects of MPTP administration on mouse rotarod performance and damage to dopaminergic neurons were then analyzed 1 week after the last injection of MPTP. To determine the effect of α-synuclein knockdown in protecting dopaminergic neurons against MPTP, the Tat-βsyn-degron peptide or its control Tat-βsyn (6 μmol/kg; i.p.) was used in some animals twice a day for 12 days, beginning the first day of MPTP injection. […] The striatum is a region that receives dopaminergic neuronal projections from the substantia nigra and is also deeply affected in PD. Consistent with the specific neurotoxic effects of MPTP on dopaminergic neurons, in mice receiving MPTP injection alone there was a significant loss of protein TH in both dopaminergic neurons in the substantia nigra-containing ventral midbrain (FIGS. 6a and 6c) and dopaminergic neuronal terminals in the striatum (FIGS. 6d and 6f). […] As expected, the specific knockdown of α-synuclein by Tat-βsyn-degron protected against MPTP-induced dopaminergic neuronal injury (FIGS. 6c and 6f).
C57BL/6 mice (20-25 g) received intraperitoneal (i.p.) injection of 30 mg/kg parkinsonian toxin MPTP hydrochloride once a day for 5 days to induce dopaminergic neuron death in the substantia nigra, while the control mice received equal volumes of saline injection. 6 μmol/kg Tat-βsyn-degron peptide or control Tat-βsyn peptide was i.p. injected into the MPTP-treated mice every 12 hrs from the first day of MPTP injection until 7 days after the last injection of MPTP. All groups of mice then underwent a rotarod test before they were sacrificed.
as §1
C57BL/6 mice were anesthetized with 1.5 g/kg urethane (Sigma, U2500) and then perfused with 0.9% saline and 4% paraformaldehyde. Brains were removed and fixed in 4% paraformaldehyde for 24 hrs before being transferred to 30% sucrose/PBS solution for cryoprotection. The brains were then sectioned into 30 μm slices using a Leica cryostat. After blocking and permeabilization using a PBS solution containing 1% BSA and 0.2% Triton X-100 for 30 min at room temperature, the brain slices were incubated with anti-TH antibody (1:800 dilution) for 3 days at 4° C. Finally, the TH-positive neurons in the substantia nigra and TH-positive neuronal terminals in the striatum were stained using the anti-mouse Ig HRP detection kit (BD Transduction Laboratories, 551011) according to manufacturer's instruction, and visualized under Zeiss Axio Observer D1 microscope. […]

[3] = biological target: T2, endogenous α-synuclein (Mus musculus, UniProt O55042); assay: α-synuclein expression in peripheral and brain tissues after peptide injection; format: in vivo; conditions: 6 μmol/kg, i.p., 6 hours after peptide injection
T2 construct: from tissue; host or cells: kidney, spleen, ventral midbrain, striatum

[4] = MPTP 30 mg/kg x5 days, immunoblot

“YGRKKRRQRRRRTKSGVYLVGRRRG (The sequence is synthesized (YGRKKRRQRRRRTKSGVYLVGRRRG)) [Tat-βsyn-degron]” was tested, and the “time course of knockdown of endogenous α-synuclein” value ([1]; 50 μM bath application, primary cortical cultures) was “induced a time-dependent knockdown of endogenous α-synuclein”, the “endogenous α-synuclein protein levels” value ([1]; bath application 24 hrs, 5-50 μM (control 50 μM), cortical neuron cultures) was “robust reduction of endogenous α-synuclein protein levels in a dose-dependent manner” and the “TH protein level in striatum after MPTP” value [2, 4] was “protected against the MPTP-induced decrease in the level of TH protein”. For the same sequence, the “TH protein level in ventral midbrain after MPTP” value [2, 4] was “protected against the MPTP-induced decrease in the level of TH protein”, the “MPTP-induced dopaminergic neuronal damage (overall, FIG. 6 and FIG. 7a-d)” value [2] was “largely protected” and the “density of dopaminergic neuronal terminals in the striatum after MPTP” value ([2]; TH densitometry) was “protected against MPTP-induced decrease”. The “number of dopaminergic neurons in the substantia nigra pars compacta after MPTP” value ([2]; blinded TH neuron counting) was “protected against MPTP-induced decrease in the number of dopaminergic neurons”, the “α-synuclein expression in the kidney” value [3] was “significantly reduce the α-synuclein expression” and the “α-synuclein expression in the spleen” value [3] was “significantly reduce the α-synuclein expression”. The “α-synuclein expression in the striatum” value [3] was “significantly reduce the α-synuclein expression” and the “α-synuclein expression in the ventral midbrain” value [3] was “significantly reduce the α-synuclein expression”.
